The text below walks through data of the NTF2 design screens of Basanta et al. (2020).

The data set is described as follows: protease stability score; higher = more stable; yeast display proteolysis, trypsin and chymotrypsin.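 Further: relative to predicted unfolded state with 0 unfolded-like and 1 meaning tenfold more protease.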
In turn, “SEEEKYARKAIELMKHNYETGDFEKLSRLMDPHVRLHIGDKSHHGMDEFVHWVSQFDHMEMNVHDVRVQGDKIEIIGHLVVRIDGRERRTETYIHLHKFDGQWIVHTIEVR” had a protease stability score of 1.34.

Sequence “DEETKETIELMEKFRQDEETGDWRSLHRMADPHTKLVVDGREYHGMEHATTYLVEFIEHFGVKHFHIEDSHVVDGRIVLHTRVEVGDKSREIRIVALKINGVWLMQSIEIG” came in with a protease stability score of 0.102.

Regarding “DEEEKISKEATDNFIREFETGNEEDLMKNMDPNARLIQGDKHNHGRDEASRFLVELLRDLGFKHIRLTHVRIIDGRVWVHSDLHFNGVEFKQDVIFTKINGKWTLKSLTIK”, the protease stability score worked out at 1.13.

The sequence “DEEKEEYNRKAKEFWQRWLTGDEKRLRELADPNVRLDIDGVELVGREEFVHAVHEFLRHIRFKDMKVHRTDNIDGKNESDFEVTGDVNGQDMKSRTHVLILLVNGKIKEVEHRWK” displayed a protease stability score of 0.222.

“SEDREEYHELLKRMIHALMTGDWRDFEKLFDPNARLEVNGQIFHGREDVVKWLRDVLKRYDHIEHFRIRTEEYQGDKIIMDGELHKVINGQHIVTRVRIEVWVVDGRLKRRSEREE”: the protease stability score was found to be 1.51.

Turning to “SEEKRIDQHFTEQLDRLIETGDEEQLNKLADPHARLIFNGRTEHGREESHKLRHELLERWGHDRVHVELKDMEVQGDKLIVHTVIQINGVKFHVEIIVRKINGRWKMTEVRII”, the protease stability score came out at 0.314.

With “DESEELVRRFLEERIQDLRTGNWERIHENLDPNVRLIVNGRIFHGREALHVFRRRVDHNEDEKIRDVRIQGDKAEVDMEVLGVVNGVRTNFEAKLIMTKFDGKWSVKEVQID”, the protease stability score came out at 1.75.

“SEEEHISERAMELLSESIRTGNEHLISKLADPHTRMLYGDKELHGRSRWSEWASRVKNMRFETHEVRVVGDKIRSDVRSNFDGRLHIEHLYILKIDGRWVLDKIEIE” yielded a protease stability score of 0.246.

Turning to “DEESKESHDIMRILLHIFRTGDEHKLKEMADPNTLFHIGDKEFHGREEFVHFLREVFEKIKNIKHRITDIKDVGDKIHVEVEEKVNGRHRHVELIWLVVDGKIQWYEIRIR”, the protease stability score was determined as 1.23.

Take “SSQEKFLKELVEIWVELWRTGNEEAFKRLADPDAKNDVNGVYSHGMENVEKLLKHFGIKHVEINDVKVQGDKVIMDGIIEFNGVTIKEHVEIVIVNGRFKELRIRRE”: the protease stability score was found to be 0.788.

With “SESEEASREAIHLMIESWRTGNEHILDRLMDPNVRNRIDGRDLIGRENFLEVLRHLEEKMGIDHIEFDTERVRWVGDKAESDTRFETVYNGKNVEISTKVHWEKVNGRWHIREIRFH”, the protease stability score is 1.17.

In turn, “DDESEHSMKVFRFWAEARETGDEDTLTRLLDPHARLIQGDKHIIGREEWTRIIKERREQYGVKHIHFHIQDMRIFNGRVHLKVHYEIKFDGQSVTIDSEIIITKVDGRWYFESETKR” gave a protease stability score of 1.11.

Sequence “DKEEELVKKFLELWLHALRTGDEDFIRELFDPHARFVFDGRDFHGMEEFIRIMRHIRFHHIHLHHFDLQGDYVRLDTRVDGNVDGKRVTINTHMIMHKVNGRWVLESYTID” displayed a protease stability score of 0.839.

“DELEHHLFELMEKMIKARLTGDEETLHRLADPDTRIEVGEFEFHGREHWVRFVRELDERIKNIRFEIRLRRYETVGNKIHIDIELRYHQGDKEEHHRTEWILIVFNGRLKSIQIVLH”: the protease stability score was determined as 1.81.

In turn, “DDEEEILKEFVRIFREVWLTGDFHALLRLADPNVRQELHVNGREIHNHGREAMSDWHHFMRKFFKGMTIIEHTSYLIDGRIHIEGTWSFDGVDFRTHIHQVVIDGRIEHVQLTIH” showed a protease stability score of 0.177.

For the sequence “SETDESSRVASELMREWLETGDEEVISELADPHVRFDWNGRRDIGRHSYLEFMHMLRRHMGIKHIEFKRIEVHVINGVVHVNITGILHFNGVQLTTHIHIHAEKIDGRWILKQSHYDTE”, the protease stability score was 0.751.

“SELEKLLLDIARKLIHSYLTGDWRTFQELADPNVKIRVVVGDKEERIHGRENIIEWLERERKQYDHIEVRIDDERTIGDKLHIDGTFIIRVDGKTRFSRVEIHLLIIDGKVTSLEFHEK”: the protease stability score came to 1.07.

In turn, “DEEEEEDKRMADEIVHSFLTGNEDWLHELADPNTRSEVGDKEAHGRENMVKLLRIHLRELGVDHIELTHVRVHSQGDKIIVIVHGKVKIGDKILELHIHIIVLKIDGRWLLHSVRIEIN” had a protease stability score of 1.09.

Consider “DEDDEVSKFVAHVLSRVFHTGDEENLQKLADPNVRLHIGDKHHIGRETFIRWLRHFLDRADHVDSDVHDVRSIDGRIWADTRLRLEINGQTIEREVIIVIHKINGRWILHRIEIR”, for which the protease stability score worked out at 1.49.
